We go through 16 sequences from the DeepSol protein solubility set.

This series in a line: soluble on expression in E. coli; label from the status in PepcDB or PDB records.
For “MTGNKIHNPLDRNHSELRDKKVSLNDGDPFTIALFGVDSDADRKKKGGGERSDSIMILSINPKTKKTEIVSIPRDTRAEIVGRGTTEKIAHAYAYGGPNMAVKSLEKLMNVPIDHYATIDMDGLHNMIDSIGGVDVVSNDTFTVDGVRFTKGQQTHVNGDQALKFIRSRKEEGAGGDFGRQQRQQIVLEAMANKIASPSSITHFNSLMNEIQNNVKTDLTLGDLNTIRSNYKDANDTINKHQLSGQGGIQSDGLYYFIPSEQSKAESTKLLKDNLELEHHHHHH”, the “soluble on expression in E. coli” value was “soluble”.
Turning to “MPQPAARVTDMHVCPMVTPGLPPVPHVGGPLLPPGSPSVFIGGLPAATLGTLALCSGPVDVVIMGSVKVLICGKPAARMGDICAHGGTIVSGYPQVLIG”, the “soluble on expression in E. coli” value was “not soluble”.
Consider “MGPIVSPALHAVQASRFEDVRQARSATGTRTDEGLRRSAGGRYAGASSRGTYQSGAGRVTNPLRRSKVSESLSIHHDVGGHQFETTVDGHRAYLAYMDLGKQTLDIYRTFVPDSLRGRGIAAALTEHALQYADRMGYSVIPSCSYVERYIERRQRQADPAALEHHHHHH”, for which the “soluble on expression in E. coli” value was “soluble”.
As for “MNDGKISILVLGADKAQGGQSRTDSIMVVQYDFINKKMKMMSVMRDIYADIPGYGKHKINSAYALGGPKLLRKTLDKNLGINPEYYAVVDFTGFEKMIDELMPEGVPINVEKDMSKNIGVSLKKGNHRLNGKELLGYARFRHDPEGDFGRVRRQQQVMQTLKKEMVNFRTVVKLPKVAGILRGYVNTNIPDSGIFQTGLSFGIRGEKDVKSLTVPIKNSYEDVNTNTDGSALQINKNTNKQAIKDFLDEDLEHHHHHH”, the entry is “soluble”; as for “GSHMTPPHNYLAVIKVVGIGGGGVNAVNRMIEQGLKGVEFIAINTDAQALLMSDADVKLDVGRDSTRGLGAGADPEVGRKAAEDAKDEIEELLRGADMVFVTAGEGGGTGTGGAPVVASIARKLGALTVGVVTRPFSFEGKRRSNQAENGIAALRESCDTLIVIPNDRLLQMGDAAVSLMDAFRSADEVLLNGVQGITDLITTPGLINVDFADVKGIMSGAGTALMGIGSARGEGRSLKAAEIAINSPLLEASMEGAQGVLMSIAGGSDLGLFEINEAASLVQDAAHPDANIIFGTVIDDSLGDEVRVTVIAAGFDVSGPGRKPVMGETGGAHRIESAKAGKLTSTLFEPVDAVSVPLHTNGATLSIGGDDDDVDVPPFMRR”, “soluble”; as for “MNAADRVMQSYGRCCASTGFFDDFYRHFLASSPQIRAKFATTDMTAQKHLLRAGIMNLVMYARGMSDSKLRALGASHSRAALDIRPELYDLWLDALLMAVAEHDRDCDAETRDAWRDVMGRGIAVIKSYY”, “soluble”.
Then “MKEYRLTDWLPTTKKEVELRGWDELDVILFSGDAYVDHPSFGAAVIGRILEAEGLKVAIIPQPNWRDDLRDFRKLGRPRLFFGISAGSMDSMVNKYTANKRLRSEDAYTPDGRPDMRPEYPSIVYSQILKRLYPDVPVILGSIEASLRRLSHYDYWQDKVQKSILCDSGADLLIYGMGEKPIVELTRKMKELLPAEDASLTAGELKKIAGTIPQTAYLCRATEWTPAADDIQLYSHEECLADKKKQASNFRHIEEESNKYAASRITQEVDNKVVVVNPPYPPMSQEELDHSYDLPYTRLPHPKYKGKRIPAYDMIKFSVNIHRGCFGGCAFCTISAHQGKFIVSRSKKSILNEVKEVMQLPDFKGYLSDLGGPSANMYQMKGKDEAICKKCKRPSCIHPKVCPNLNSDHCPLLDIYKAVDAIPGIKKSFIGSGVRYDLLLHQSKDAATNRSTAEYTRELIVNHVSGRLKVAPEHTSDRVLSIMRKPSFEQFETFKKIFDRINREENLRQQLIPYFISSHPGCKEEDMAELAVITKRLDFHLEQVQDFTPTPMTVATEAWYSGFHPYTLEPVFSAKTQREKLAQRQFFFWYKPEERKNILNELRRIGRQDLIDKLYGKRNK”, with “not soluble”; and “MGSDKIHHHHHHMTKLDSFHLGELYRELRVARGLKMKDVVSDKLSQAQLSKFENGQTMLSADKLLTAISAIHMSFAEFEHAYYQYEDSSFFKQAKLISKYHSNKNIEGLEKLLIIHDNNSETYDVYDKLNKLVIRCAIHDLNPEYIISDDDKDFITTYLYSIEEWTEYELYIFGNTLQVLSDSDLIFLSKSFIERDSLYLSIPNNNFRTQLVVLNIIFVLLERKKDYCVHYFMKHLESILTYQDMFVKTVLIFLKKVLNYREGKGTHLIDLKKYIHDVEELGHEDVAEFLKDNIVNLL”, with “not soluble”; and “MGSDKIHHHHHHMFWKKDPTVSWERKNINDIDFSRFNVAIIGGTGGLGRAISRELAQRNARVTVVGQTFRDEDLKDKINFVKADLSLVSECKRISHSDEIPYEELTHLIFTTGIFASRQRQATSEGLEKDMAVSYLSRYIIFHDVAKRLGISRTKKDDLPKVFIAGFPGNGQVGDPDDLNSDEKKYSAYATHMNTVAANESLVIDAKDRYTNIDTFGLNPGLIKTNIRNNLLGSDTYLSRITEWIISWTCQSAETYAKTICTLIASPAIESRSGTMFSNKGDAILPSPGLTKDVVEKFMENSELLVEKALRNQSPFTSSNE”, with “not soluble”.
As for “MAHHHHHHMALYIIGLGLGDERDVSVRGKELIEMSDVVYLESYTSVLFVSKNALEEFYKKNIKEVDRNFAEENCEEILEEAVNKKVSFLVVGDPLCATTHHDIILRAKKKNINVQVIHNASIMSAIGESGMQLYNFGQTVSIPYFEETYKPTSFYDKIKVNLDNNFHTLCLLDIKVKERTIENLMKNKNIYEPPRYMTINEAIEQLLYCEEVHKKNVITDNTRGIAIVRIGSNSQQIVSGNLLTLKTIKYNDPLHSLIICAPTLHDVEREYFDMYMHK”, the “soluble on expression in E. coli” value was “not soluble”.
As for “GAATMMRLARAMRPRPDGLPAQADDLRLHRLVLNDVGPRLNVEALQRIAGNVAAQDSYPTFEAAVAAMRQISTTFGPHTDAQWDELARHIYVRQGGGWVRHFDPALAVPLGAQVAQAFEAGERILWQAYDSLDCPVLIVRGQDSDLLSAATAAEMLGRNPRARLHEVPGVGHAPTLMTPEQIEPIARFLQE”, the entry is “not soluble”; as for “AHHHHHHGSIPIAKPLIGEEEINAVIEVLKSGMLAHGKEVEAFEREFASYIGVKHGIAVVNGTAALDIALKALKIKPGDEIITTPFTFIASANAILFQGAKPVFADIDPKTYNLDPDEVLEKINEKTKAIIVVHLYGQPADMKAFKEIAEDYKLYLIEDCAQAHGAEFEGQKVGTFGDIAAFSFYPTKNMTTGEGGMVLTNDDELARRARLIRNHGQTEKYLHEELGYNLRMTNIAAALGRVQLRKLDKWNEIRIENAELLTKGIKRIKGLTPPYVDKRVKHVFHQYVIRVEDDFPLTRDELREKLMEKGIGTAVHYPMPVHHQPLYQRLGYSKDCCPNAIEASKRVLSLPVHPAVSKEDINYIIRTLEELG”, “not soluble”.
Consider “MRHDGRQHDELRPITFDLDFISHPEGSVLITAGNTKVICNASVEDRVPPFLRGGGKGWITAEYSMLPQATNQQTIQESSKGKISGRTMEIQRLIGRALRAVVDLEKLGERTIWIDCDVIQADGGTRTASITGAFLAMAIAIGKLIKAGTIKTNPITDFLAAISVGIDKEQGILLDLNYEEDSSAEVDMNVIMTGSGRFVELQGTGEEATFSREDLNGLLGLAEKGIQELIDKQKEVLGDSLPELK”, for which the “soluble on expression in E. coli” value is “soluble”.
Then “MVSVIKPEMKMRYYMDGSVNGHEFTIEGEGTGRPYEGHQEMTLRVTMAKGGPMPFAFDLVSHVFCYGHRPFTKYPEEIPDYFKQAFPEGLSWERSLEFEDGGSASVSAHISLRGNTFYHKSKFTGVNFPADGPIMQNQSVDWEPSTEKITASDGVLKGDVTMYLKLEGGGNHKCQFKTTYKAAKKILKMPGSHYISHRLVRKTEGNITELVEDAVAHSLEHHHHHH”, with “soluble”; and “MSLSELVRKLSGTAPNPAFPRGAVDTQMHMYLPGYPALPGGPGLPPGALPGPEDYRRLMQWLGIDRVIITQGNAHQRDNGNTLACVAEMGEAAHAVVIIDATTTEKDMEKLTAAGTVGARIMDLPGGAVNLSELDAVDERAHAADWMVAVQFDGNGLLDHLPRLQKIRSRWVFDHHGKFFKGIRTDGPEMAALLKLIDRGNLWFKFAGVYESSRKSWPYADVAAFSRVIAAHAPERIVWGTNWPHNSVRETAAYPDDARLAELTLGWLPDEAARHRALVENPEALFKLSPVKEGHHHHHH”, with “soluble”; and “MLIKVKTLTGKEIEIDIEPTDTIDRIKERVEEKEGIPPVQQRLIYAGKQLADDKTAKDYNIEGGSVLHLVLALRGG”, with “soluble”.
